Values quoted from earlier work as cited in article PMC2659627 (Bioconjugate chemistry, 2008).
pIC50: −log10 of the molar value. DPr = 2,3-diaminopropanoyl

Experiments:
GRP-receptors = settings: read-out: IC50 (binding affinity to GRP-receptors); human PC-3 cell line
PC-3 cells = settings: after 90 min incubation with PC-3 cells

Row | Substance | pIC50 (GRP-receptors) | Uptake in normal pancreas [ID/g] | Internalization (PC-3 cells) [%] | Uptake compared to DTPA-BBN[1-14] (CA20948 pancreas tumor) | Uptake compared to DTPA-BBN[1-14] (PC-3 prostate tumors) [times]
1 | (DPr)-Ser-Ser-Ser-Gln-Trp-AlaVal-Gly-His-Leu-Met-(NH2) (DPr-SSSQWAVGHLM-NH2; also: Tc/Re tricarbonyl complex on DPr chelator) | ~9.07 | 16 ± 1.3 | 80 | – | –
2 | DTPA-ACMpip-Tha^6-BAla^11-Tha^13-Nle^14-BBN[6-14] | – | – | – | two to three times higher | 1.3
